# Measurements: IntAct's records for PubMed 31515488
# B1: Elongin-A2 (Homo sapiens), Q8IYF1 (parent)
# chain: MAAGSTTLHAVEKLQVRLATKTEPKKLEKYLQKLSALPMTADILAETGIRKTVKRLRKHQHVGDFARDLAARWKKLVLVDRNTRPGPQDPEESASRQRFGEALQDQEKAWGFPENATAPRSPSHSPEHRRTARRTPPGQQRPHPRSHSREPRAERKCPRIAPADSGRYRASPTRTAPLRMPEGPEPAAPGKQPGRGHTHAAQGGPLLCPGCQGQPQGKAVVSHSKGHKSSRQEKRPLCAQGDWHSPTLIREKSCGACLREETPRMPSWASARDRQPSDFKTDKEGGQAGSGQRVPALEEAPDSHQKRPQHSHSNKKRPSLDGRDPGNGTHGLSPEEKEQLSNDRETQEGKPPTAHLDRTSVSSLSEVEEVDMAEEFEQPTLSCEKYLTYDQLRKQKKKTGKSATTALGDKQRKANESKGTRESWDSAKKLPPVQESQSERLQAAGADSAGPKTVPSHVFSELWDLSEAWMQANYDPLSDSDSMTSQAKPEALSSPKFREEAAFPGRRVNAKMPVYSGSRPACQLQVPTLRQQCAQVLRNNPDALSDVGEVPYWVLEPVLEGWRPDQLYRRKKDNHALVRETDELRRNHCFQDFKEEKPQENKTWREQYLRLPDAPEQRLRVMTTNIRSARGNNPNGREAKMICFKSVAKTPYDTSRRQEKSAGDADPENGEIKPASKPAGSSHTPSSQSSSGGGRDSSSSILRWLPEKRANPCLSSSNEHAAPAAKTRKQAAKKVAPLMAKAIRDYKRRFSRR
# partner: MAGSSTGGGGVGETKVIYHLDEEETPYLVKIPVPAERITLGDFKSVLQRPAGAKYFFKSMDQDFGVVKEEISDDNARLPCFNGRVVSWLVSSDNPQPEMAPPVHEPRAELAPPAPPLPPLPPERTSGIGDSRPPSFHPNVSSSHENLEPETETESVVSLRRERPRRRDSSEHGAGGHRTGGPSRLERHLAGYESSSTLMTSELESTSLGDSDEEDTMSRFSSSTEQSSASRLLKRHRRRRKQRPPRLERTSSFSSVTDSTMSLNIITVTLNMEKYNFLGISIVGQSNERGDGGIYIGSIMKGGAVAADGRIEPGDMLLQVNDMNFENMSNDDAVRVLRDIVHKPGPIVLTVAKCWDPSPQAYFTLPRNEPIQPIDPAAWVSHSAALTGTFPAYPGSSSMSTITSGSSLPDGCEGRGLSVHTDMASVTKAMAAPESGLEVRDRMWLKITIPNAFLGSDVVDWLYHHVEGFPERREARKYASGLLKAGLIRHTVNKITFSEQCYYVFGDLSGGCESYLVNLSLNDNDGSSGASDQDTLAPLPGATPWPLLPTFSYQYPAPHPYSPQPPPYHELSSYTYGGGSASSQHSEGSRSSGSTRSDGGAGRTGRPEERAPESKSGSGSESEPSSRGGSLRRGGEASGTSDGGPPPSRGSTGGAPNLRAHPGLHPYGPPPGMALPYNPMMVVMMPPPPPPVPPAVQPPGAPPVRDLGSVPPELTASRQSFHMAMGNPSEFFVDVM
# B2: Elongin-A2 (Homo sapiens), Q8IYF1 (parent)
# chain: B1 chain
# partner: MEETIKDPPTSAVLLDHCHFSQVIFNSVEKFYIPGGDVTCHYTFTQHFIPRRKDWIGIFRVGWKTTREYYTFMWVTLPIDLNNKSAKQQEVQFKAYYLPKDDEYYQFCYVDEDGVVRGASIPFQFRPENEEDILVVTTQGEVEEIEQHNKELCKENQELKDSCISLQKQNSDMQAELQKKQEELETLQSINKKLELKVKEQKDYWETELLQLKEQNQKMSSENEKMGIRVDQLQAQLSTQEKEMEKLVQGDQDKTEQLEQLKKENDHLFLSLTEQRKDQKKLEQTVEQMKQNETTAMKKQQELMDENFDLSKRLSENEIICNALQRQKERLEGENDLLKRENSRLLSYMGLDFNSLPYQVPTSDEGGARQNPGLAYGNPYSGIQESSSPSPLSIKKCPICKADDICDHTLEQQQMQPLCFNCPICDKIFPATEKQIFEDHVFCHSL
# Variants of: B1
# Details: with dvl2_human DVL2, O14641
row,Variant,effect of a mutation on the interaction
1,T6S,with no effect
2,A403S,with no effect
3,A446T,with no effect
4,G505R,with no effect
5,R179P,with no effect
6,C254F,with no effect

# Variants of: B2
# Details: with caco2_human CALCOCO2, Q13137
row,Variant,effect of a mutation on the interaction
1,T6S,with no effect
2,D302H,with no effect
3,R179P,with no effect
4,C254F,with no effect
5,G505R,disrupting interaction strength
